Measurements as given in article PMC8528238 (Nature, 2021).

B1: DH1041, SARS-CoV-2-specific ACE2-binding site-focused RBD neutralizing antibody (antibody, V domains shown)
VH: EVQLVESGGGLVQPGGSLRLSCAASGVTFSSYWMSWVRQAPGKGLEWVANIRQDGSEKYSVDSVKGRFTISRDNAKNSLYLQMNSLRAEDTAVYYCARARRADNSGYYGFHFDCWGQGTLVTVSS
VL: QSVLTQPPSVSGAPGQRVTISCTGSSSNIGAGYDVHWYQQLPGTAPKLLIYGNNNRPSGVPDRFSDSKSGTSASLAITRLQAEDEADYYCQSYDSSLSGWVFGGGTKLTVL
B2: DH1047, cross-neutralizing RBD antibody (antibody, V domains shown)
VH: QVQLVQSGAEVKKPGASVQVSCQASANTFTNHYIHWVRQAPGQGLEWMGIIYPTGGNTIYAQGFQGRVTMTRDTSLNTIYLELSSLRSEDTAVYYCARDVRVDDSWSGYDLLSGGTYFDYWGQGTLVTVSS
VL: not shown

Target: SARS-CoV-2 D614G stabilized spike ectodomain (SARS-CoV-2, D614G, UniProt A0A6H1PJZ3, D614G)
Test: ELISA

Binder	binding result
B1	binds
B2	binds
